Source: the supplement of paper PMC5998384

Assays:
HeLa Kyoto [1] = assay: melting temperature (median over replicates), in situ; higher = more thermally stable
HeLa Kyoto [2] = assay: solubility in G1/S (NP-40 vs SDS abundance) (log2 ratio); higher = more soluble; settings: cell cycle stage: G1/S
HeLa Kyoto [3] = assay: thermal stability score vs G1/S (z-score of summed log2 fold changes over temperatures); higher = more thermally stable than in G1/S
HeLa Kyoto [4] = assay: solubility change mitosis vs G1/S (difference of NP-40 vs SDS log2 ratios) (log2 ratio difference); higher = more soluble in mitosis
[5] = cell cycle stage: early G1 (4.5 h after nocodazole release)
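Wherever melting temperature (median over replicates), in situ is given: HeLa Kyoto cells synchronized by double thymidine or nocodazole block, proteins quantified by TMT10plex mass spectrometry, three independent biological replicates.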
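Wherever solubility change mitosis vs G1/S (difference of NP-40 vs SDS log2 ratios) is given: synchronized HeLa Kyoto cells (double thymidine block for G1/S, nocodazole release for mitosis), protein amounts in NP-40 versus SDS lysates quantified by mass spectrometry, three biological replicates.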
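Wherever solubility in G1/S (NP-40 vs SDS abundance) is given: HeLa Kyoto cells arrested at G1/S by double thymidine block, proteins quantified by TMT10plex mass spectrometry in mild NP-40 versus SDS extracts, three biological replicates.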
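Wherever thermal stability score vs G1/S (z-score of summed log2 fold changes over temperatures) is given: synchronized HeLa Kyoto cells, proteins quantified by TMT10plex mass spectrometry, three biological replicates, mitosis taken 0.5 h after nocodazole release, G1/S directly after double thymidine block.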

Substance	melting temperature (HeLa Kyoto [1]; cell cycle stage: G1/S) [°C]	melting temperature (HeLa Kyoto [1]; cell cycle stage: mitosis) [°C]	solubility in G1/S (log2) (HeLa Kyoto [2])	thermal stability score (HeLa Kyoto [3]; [5])	thermal stability score (HeLa Kyoto [3]; cell cycle stage: mitosis)	solubility change mitosis (log2) (HeLa Kyoto [4])
MIDSSKKQQQGFPEILTAGDFEPLKEKECLEGSNQKSLKEVLQLRLQQRRTREQLVDQGIMPPLKSPAAFHEQIKSLERARTENFLKHKIRSRPDRSELVRMHILEETFAEPSLQATQMKLKRARLADDLNEKIAQRPGPMELVEKNILPVDSSVKEAIIGVGKEDYPHTQGDFSFDEDSSDALSPDQPASQESQGSAASPSEPKVSESPSPVTTNTPAQFASVSPTVPEFLKTPPTADQPPPRPAAPVLPTNTVSSAKPGPALVKQSHPKNPNDKHRSKKCKDPKPRVKKLKYHQYIPPDQKGEKNEPQMDSNYARLLQQQQLFLQLQILSQQKQHYNYQTILPAPFKPLNDKNSNSGNSALNNATPNTPRQNTSTPVRKPGPLPSSLDDLKVSELKTELKLRGLPVSGTKPDLIERLKPYQEVNSSGLAAGGIVAVSSSAIVTSNPEVTVALPVTTLHNTVTSSVSTLKAELPPTGTSNATRVENVHSPLPISPSPSEQSSLSTDDTNMADTFTEIMTMMSPSQFLSSSPLRMTNNEDSLSPTSSTLSNLELDAAEKDRKLQEKEKQIEELKRKLEQEQKLVEVLKMQLEVEKRGQQQRPLEAQPSAPGHSVKSDQKHGSLGSSIKDEASLPDCSSSRQPIPVASHAVGQPVSTGGQTLVAKKAVVIKQEVPVGQAEQQSVVSQFYVSSQGQPPPAVVAQPQALLTTQTAQLLLPVSIQGSSVTSVQLPVGSLKLQTSPQAGMQTQPQIATAAQIPTAALASGLAPTVPQTQDTFPQHVLSQPQQVRKVFTNSASSNTVLPYQRHPAPAVQQPFINKASNSVLQSRNAPLPSLQNGPNTPNKPSSPPPPQQFVVQHSLFGSPVAKTKDPPRYEEAIKQTRSTQAPLPEISNAHSQQMDDLFDILIKSGEISLPIKEEPSPISKMRPVTASITTMPVNTVVSRPPPQVQMAPPVSLEPMGSLSASLENQLEAFLDGTLPSANEIPPLQSSSEDREPFSLIEDLQNDLLSHSGMLDHSHSPMETSETQFAAGTPCLSLDLSDSNLDNMEWLDITMPNSSSGLTPLSTTAPSMFSADFLDPQDLPLPWD [MKL2]	52.5	53	0.208	1.45	3.81	-0.304
MFVQEEKIFAGKVLRLHICASDGAEWLEEATEDTSVEKLKERCLKHCAHGSLEDPKSITHHKLIHAASERVLSDARTILEENIQDQDVLLLIKKRAPSPLPKMADVSAEEKKKQDQKAPDKEAILRATANLPSYNMDRAAVQTNMRDFQTELRKILVSLIEVAQKLLALNPDAVELFKKANAMLDEDEDERVDEAALRQLTEMGFPENRATKALQLNHMSVPQAMEWLIEHAEDPTIDTPLPGQAPPEAEGATAAASEAAAGASATDEEARDELTEIFKKIRRKREFRADARAVISLMEMGFDEKEVIDALRVNNNQQNAACEWLLGDRKPSPEELDKGIDPDSPLFQAILDNPVVQLGLTNPKTLLAFEDMLENPLNSTQWMNDPETGPVMLQISRIFQTLNRT [UBAC1]	50.9	50.6	0.313	1.16	0.844	-0.0991
MAAGPISERNQDATVYVGGLDEKVSEPLLWELFLQAGPVVNTHMPKDRVTGQHQGYGFVEFLSEEDADYAIKIMNMIKLYGKPIRVNKASAHNKNLDVGANIFIGNLDPEIDEKLLYDTFSAFGVILQTPKIMRDPDTGNSKGYAFINFASFDASDAAIEAMNGQYLCNRPITVSYAFKKDSKGERHGSAAERLLAAQNPLSQADRPHQLFADAPPPPSAPNPVVSSLGSGLPPPGMPPPGSFPPPVPPPGALPPGIPPAMPPPPMPPGAAGHGPPSAGTPGAGHPGHGHSHPHPFPPGGMPHPGMSQMQLAHHGPHGLGHPHAGPPGSGGQPPPRPPPGMPHPGPPPMGMPPRGPPFGSPMGHPGPMPPHGMRGPPPLMPPHGYTGPPRPPPYGYQRGPLPPPRPTPRPPVPPRGPLRGPLPQ [SF3B4]	50.9	51.3	0.275	-2.15	-2.49	0.162
WDR45B	54.5	57.4	0.0796	0.71	-1.09	-0.118
MAARTVIIDHGSGFLKAGTAGWNEPQMVFPNIVNYLPCKENPGPSYARRRVSLGIDICHPDTFSYPIERGRILNWEGVQYLWSFVLENHRREQEVPPVIITETPLREPADRKKMLEILFELLHVPSVLLADQLQMSLYASGLLTGVVVDSGYGLTRVQPFHQGRPLPASGKTLEFAGQDLSAYLLKSLFKEDCDRRCLFQLETVAVTQMNKCYVPQNLGEALDFRERQQSALDESNTYQLPDGSRVELTPMQRVAPEMFFSPQVFEQPGPSIPRAIVESVESCEISLRPLLVSHVMACGGNTLYPGFTKRLFRELMGDHVSSTKATVWEGSNRNFSVWLGASVVAHLSTYQSEWMSREEYGEHMRM [ACTL8]	52.8	52.4	-0.19	-0.233	-1.1	0.0715
MPSKSLVMEYLAHPSTLGLAVGVACGMCLGWSLRVCFGMLPKSKTSKTHTDTESEASILGDSGEYKMILVVRNDLKMGKGKVAAQCSHAAVSAYKQIQRRNPEMLKQWEYCGQPKVVVKAPDEETLIALLAHAKMLGLTVSLIQDAGRTQIAPGSQTVLGIGPGPADLIDKVTGHLKLY [PTRH2]	52.3	52.6	0.447	-0.625	-2.48	0.0782
MGSGPIDPKELLKGLDSFLNRDGEVKSVDGISKIFSLMKEARKMVSRCTYLNILLQTRSPEILVKFIDVGGYKLLNNWLTYSKTTNNIPLLQQILLTLQHLPLTVDHLKQNNTAKLVKQLSKSSEDEELRKLASVLVSDWMAVIRSQSSTQPAEKDKKKRKDEGKSRTTLPERPLTEVKAETRAEEAPEKKREKPKSLRTTAPSHAKFRSTGLELETPSLVPVKKNASTVVVSDKYNLKPIPLKRQSNVAAPGDATPPAEKKYKPLNTTPNATKEIKVKIIPPQPMEGLGFLDALNSAPVPGIKIKKKKKVLSPTAAKPSPFEGKTSTEPSTAKPSSPEPAPPSEAMDADRPGTPVPPVEVPELMDTASLEPGALDAKPVESPGDPNQLTRKGRKRKSVTWPEEGKLREYFYFELDETERVNVNKIKDFGEAAKREILSDRHAFETARRLSHDNMEEKVPWVCPRPLVLPSPLVTPGSNSQERYIQAEREKGILQELFLNKESPHEPDPEPYEPIPPKLIPLDEECSMDETPYVETLEPGGSGGSPDGAGGSKLPPVLANLMGSMGAGKGPQGPGGGGINVQEILTSIMGSPNSHPSEELLKQPDYSDKIKQMLVPHGLLGPGPIANGFPPGGPGGPKGMQHFPPGPGGPMPGPHGGPGGPVGPRLLGPPPPPRGGDPFWDGPGDPMRGGPMRGGPGPGPGPYHRGRGGRGGNEPPPPPPPFRGARGGRSGGGPPNGRGGPGGGMVGGGGHRPHEGPGGGMGNSSGHRPHEGPGGGMGSGHRPHEGPGGSMGGGGGHRPHEGPGGGISGGSGHRPHEGPGGGMGAGGGHRPHEGPGGSMGGSGGHRPHEGPGHGGPHGHRPHDVPGHRGHDHRGPPPHEHRGHDGPGHGGGGHRGHDGGHSHGGDMSNRPVCRHFMMKGNCRYENNCAFYHPGVNGPPLP [PPP1R10]	51	50.8	0.0711	4.23	3.65	0.274
MEETIKDPPTSAVLLDHCHFSQVIFNSVEKFYIPGGDVTCHYTFTQHFIPRRKDWIGIFRVGWKTTREYYTFMWVTLPIDLNNKSAKQQEVQFKAYYLPKDDEYYQFCYVDEDGVVRGASIPFQFRPENEEDILVVTTQGEVEEIEQHNKELCKENQELKDSCISLQKQNSDMQAELQKKQEELETLQSINKKLELKVKEQKDYWETELLQLKEQNQKMSSENEKMGIRVDQLQAQLSTQEKEMEKLVQGDQDKTEQLEQLKKENDHLFLSLTEQRKDQKKLEQTVEQMKQNETTAMKKQQELMDENFDLSKRLSENEIICNALQRQKERLEGENDLLKRENSRLLSYMGLDFNSLPYQVPTSDEGGARQNPGLAYGNPYSGIQESSSPSPLSIKKCPICKADDICDHTLEQQQMQPLCFNCPICDKIFPATEKQIFEDHVFCHSL [CALCOCO2]	50.5	51	0.203	-0.458	-0.851	-0.0722
MAGLSDLELRRELQALGFQPGPITDTTRDVYRNKLRRLRGEARLRDEERLREEARPRGEERLREEARLREDAPLRARPAAASPRAEPWLSQPASGSAYATPGAYGDIRPSAASWVGSRGLAYPARPAQLRRRASVRGSSEEDEDARTPDRATQGPGLAARRWWAASPAPARLPSSLLGPDPRPGLRATRAGPAGAARARPEVGRRLERWLSRLLLWASLGLLLVFLGILWVKMGKPSAPQEAEDNMKLLPVDCERKTDEFCQAKQKAALLELLHELYNFLAIQAGNFECGNPENLKSKCIPVMEAQEYIANVTSSSSAKFEAALTWILSSNKDVGIWLKGEDQSELVTTVDKVVCLESAHPRMGVGCRLSRALLTAVTNVLIFFWCLAFLWGLLILLKYRWRKLEEEEQAMYEMVKKIIDVVQDHYVDWEQDMERYPYVGILHVRDSLIPPQSRRRMKRVWDRAVEFLASNESRIQTESHRVAGEDMLVWRWTKPSSFSDSER [LEMD2]	52.5	51.1	-0.759	-1.63	-1.98	0.776
MNQKLLKLENLLRFHTIYRQLHSLCQRRALRQWRHGFSSAYPVWTAQLCAWPWPTDVLTGAALSQYRLLVTKKEEGPWKSQLSSTKSKKVVEVWIGMTIEELARAMEKNTDYVYEALLNTDIDIDSLEADSHLDEVWIKEVITKAGMKLKWSKLKQDKVRKNKDAVRRPQADPALLTPRSPVVTIMGHVDHGKTTLLDKFRKTQVAAVETGGITQHIGAFLVSLPSGEKITFLDTPGHAAFSAMRARGAQVTDIVVLVVAADDGVMKQTVESIQHAKDAQVPIILAVNKCDKAEADPEKVKKELLAYDVVCEDYGGDVQAVPVSALTGDNLMALAEATVALAEMLELKADPNGPVEGTVIESFTDKGRGLVTTAIIQRGTLRKGSVLVAGKCWAKVRLMFDENGKTIDEAYPSMPVGITGWRDLPSAGEEILEVESEPRAREVVDWRKYEQEQEKGQEDLKIIEEKRKEHKEAHQKAREKYGHLLWKKRSILRFLERKEQIPLKPKEKRERDSNVLSVIIKGDVDGSVEAILNIIDTYDASHECELELVHFGVGDVSANDVNLAETFDGVIYGFNVNAGNVIQQSAAKKGVKIKLHKIIYRLVEDLQEELSSRLPCAVEEHPVGEASILATFSVTEGKKKVPVAGCRVQKGQLEKQKKFKLTRNGHVIWKGSLTSLKHHKDDISIVKTGMDCGLSLDEDNMEFQVGDRIVCYEEKQIQAKTSWDPGF [MTIF2]	49.7	49.1	-0.146	-0.325	0.122	-0.0734
MNPAAEAEFNILLATDSYKVTHYKQYPPNTSKVYSYFECREKKTENSKLRKVKYEETVFYGLQYILNKYLKGKVVTKEKIQEAKDVYKEHFQDDVFNEKGWNYILEKYDGHLPIEIKAVPEGFVIPRGNVLFTVENTDPECYWLTNWIETILVQSWYPITVATNSREQKKILAKYLLETSGNLDGLEYKLHDFGYRGVSSQETAGIGASAHLVNFKGTDTVAGLALIKKYYGTKDPVPGYSVPAAEHSTITAWGKDHEKDAFEHIVTQFSSVPVSVVSDSYDIYNACEKIWGEDLRHLIVSRSTQAPLIIRPDSGNPLDTVLKVLEILGKKFPVTENSKGYKLLPPYLRVIQGDGVDINTLQEIVEGMKQKMWSIENIAFGSGGGLLQKLTRDLLNCSFKCSYVVTNGLGINVFKDPVADPNKRSKKGRLSLHRTPAGNFVTLEEGKGDLEEYGQDLLHTVFKNGKVTKSYSFDEIRKNAQLNIELEAAHH [NAMPT]	56.9	55.9	0.264	-1.65	-1.17	-0.0826
